The record followed here is the supplement of paper PMC9170038.

The subject of this data set is MS2 coat protein. Kind of data set: apparent KD of MS2 coat protein; designed switch direction (-1 OFF switch, 1 ON switch): -1; higher = weaker reporter binding. Summed up: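 Stalled E. coli RNA polymerase transcribed designed RNA switches on Illumina chips, which were then titrated with SNAP-549-labelled MS2 coat protein, doubling from 0.7 or 1.5 nM to 3 µM. Steps lasted from 0.8–1.5 h at the lowest concentration to 10–20 min at the highest. The apparent KD is each design's median over clusters of curve-fitted normalised fluorescence.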

Where [1] appears, read: Eterna round: R95, input ligand: microRNA oligo, concentration not stated.
Setting [2] is: input ligand: microRNA oligo, concentration not stated.
Where [3] appears, read: Eterna round: R95, input ligand: FMN 200 uM.
Where [4] appears, read: Eterna round: R95, input ligand: none.

Turning to “CAGUACUGAGGAUAUACAUGAGGAUCACCCAUGUGCUCGAAGUAGGAUACUACUAUUAGUAGAAGGCAGUACUG [Fiskers Ex 3 828 mod 22] (puzzle: Exclusion 3)”, the “apparent KD of MS2 coat protein” value under setting [1] was 15.9 nM.

For the sequence “CAGUACUGAGGAUAUACAUGAGGAUCACCCAUGUGCUUCAGCUAGGAUACUAGCAUUAGUAGAAGGCAGUACUG [Fiskers Ex 3 828 mod 13] (Eterna round: R96, puzzle: Exclusion 3)”, the “apparent KD of MS2 coat protein” value reads like this: (input ligand: FMN 200 uM) 81 nM; under setting [2], 10.8 nM; (input ligand: none) 13.9 nM.

On to “CAGUACUGAGGAUAUACAUGAGGAUCACCCAUGUGCUUCAGCUAGGAUACUAGCAUUAGUAGAAGGCAGUACUG [Fiskers Ex 3 828 mod 13] (puzzle: Exclusion 3)”, for which, under setting [1], the “apparent KD of MS2 coat protein” value came out at 11.3 nM.

Take “CAGUACUGAGGAUAUACAUGAGGAUCACCCAUGUGCUUUAGCUAGGAUACUAGCACCAGUAGAAGGCAGUACUG [Fiskers Ex 3 828 mod 12] (puzzle: Exclusion 3)”: the “apparent KD of MS2 coat protein” value under setting [1] turned out to be 10.7 nM.

As for “CAGUACUGAGGAUAUACAUGAGGAUCACCCAUGUGUCCUAGCUAGGAAACUAGCAUUAGUAGAAGGCAGUACUG [Fiskers Ex 3 828 mod 6] (Eterna round: R96, puzzle: Exclusion 3)”, the “apparent KD of MS2 coat protein” value reads like this: (input ligand: FMN 200 uM) 225 nM; under setting [2], 16.9 nM; (input ligand: none) 19.5 nM.

Turning to “CAGUACUGAGGAUAUACAUGAGGAUCACCCAUGUGUCCUAGCUAGGAAACUAGCAUUAGUAGAAGGCAGUACUG [Fiskers Ex 3 828 mod 6] (puzzle: Exclusion 3)”, the “apparent KD of MS2 coat protein” value under setting [1] was found to be 22.1 nM.

Turning to “CAGUACUGAGGAUAUACAUGAGGAUCACCCAUGUGUCUUAUAUUAGGAAACUAGGUAUGUAGAAGGCAGUACUG [Omei Ex3 Mod of Eli 4.27 v4] (Eterna round: R97, puzzle: Exclusion 3)”, the “apparent KD of MS2 coat protein” value is, setting by setting: (input ligand: FMN 200 uM) 304 nM; (input ligand: none) 62.1 nM.

Turning to “CAGUACUGAGGAUAUACAUGAGGAUCACCCAUGUGUGUGAGAUUUGGAUGAAAGUUAUGUAGAAGGCGGUGCUG [JR_Ex3_Sub037] (Eterna round: R97, puzzle: Exclusion 3)”, the “apparent KD of MS2 coat protein” value (input ligand: FMN 200 uM) came to 68.4 nM and the “apparent KD of MS2 coat protein” value (input ligand: none) was 73.8 nM.

As for “CAGUACUGAGGAUAUACAUGAGGAUCACCCAUGUGUGUGCGUUUUGUAUGAAUGUUAUGUAGAAGGCGGUGCUG [JR_Ex3_Sub035] (Eterna round: R97, puzzle: Exclusion 3)”, the “apparent KD of MS2 coat protein” value runs as follows: (input ligand: FMN 200 uM) 201 nM; (input ligand: none) 39.1 nM.

Consider “CAGUACUGAGGAUAUACAUGAGGAUCACCCAUGUGUUCCAGCUAGGAAACUAGCACUUGUAGAAGGCAGUACUG [Ex3: 830] (Eterna round: R96, puzzle: Exclusion 3)”, for which the “apparent KD of MS2 coat protein” value is, setting by setting: (input ligand: FMN 200 uM) 458 nM; under setting [2], 21.6 nM; (input ligand: none) 26.7 nM.

For the sequence “CAGUACUGAGGAUAUACAUGAGGAUCACCCAUGUGUUCCAGCUAGGAAACUAGCAUAAGUAGAAGGCAGUACUG [salish99_ex3_r3_091x] (Eterna round: R96, puzzle: Exclusion 3)”, the “apparent KD of MS2 coat protein” value is, setting by setting: (input ligand: FMN 200 uM) 461 nM; under setting [2], 18.4 nM; (input ligand: none) 23.6 nM.

Regarding “CAGUACUGAGGAUAUACAUGAGGAUCACCCAUGUGUUCCAGCUAGGAAACUAGCAUAAGUAGAAGGCAGUACUG [salish99_ex3_r3_091x] (puzzle: Exclusion 3)”, the “apparent KD of MS2 coat protein” value under setting [1] amounted to 21.8 nM.

Turning to “CAGUACUGAGGAUAUACAUGAGGAUCACCCAUGUGUUCCAGCUAGGAAACUGGCAAAAGUAGAAGGCAGUACUG [salish99_ex3_r3_070] (puzzle: Exclusion 3)”, under setting [1], the “apparent KD of MS2 coat protein” value turned out to be 21.6 nM.

Turning to “CAGUACUGAGGAUAUACAUGAGGAUCACCCAUGUUCUUCGGCUAGGAAACUAGCAAAGGUAGAAGGCAGUACUG [Salish 065 m16] (Eterna round: R97, puzzle: Exclusion 3)”, the “apparent KD of MS2 coat protein” value (input ligand: FMN 200 uM) worked out at 285 nM and the “apparent KD of MS2 coat protein” value (input ligand: none) turned out to be 15.7 nM.

For “CAGUACUGCAAGCUAUGGGACAUGAGGAUCACCCAUGUUCGUCUUAUUGAUCUAGGUACGCUGACGUACCUAGAUCU [JL-sv1-2.20 Brourd mod] (puzzle: Sensor v3, turn-off variant 1)”, the “apparent KD of MS2 coat protein” value under setting [3] stood at 16.3 nM, the “apparent KD of MS2 coat protein” value under setting [1] amounted to 20.5 nM and the “apparent KD of MS2 coat protein” value under setting [4] amounted to 15.9 nM.

As for “CAGUACUGCAGGCUUCGGGACAUGAGGAUCACCCAUGUUCGUCUUAUUGAUCUAGGUACGCUGACGUACCUAGAUCU [JL-sv1-2.16 Brourd mod] (puzzle: Sensor v3, turn-off variant 1)”, the “apparent KD of MS2 coat protein” value reads like this: under setting [3], 16.7 nM; under setting [1], 18.6 nM; under setting [4], 15.4 nM.

For the sequence “CAUAAUGCAGGAUAUACCAAAUGGCAGUGAAUGCGUGCGCAACAUGAGGAUCACCCAUGUAGAAGGGCACAAGA [Eternabot (Original) Solution 27] (Eterna round: R97, puzzle: Exclusion 2)”, the “apparent KD of MS2 coat protein” value is, setting by setting: (input ligand: FMN 200 uM) 18 nM; (input ligand: none) 13.5 nM.

Turning to “CAUAGUUACUCAGGAUAUAGUACAUGAGGAUCACCCAUGUAAUAAAUGAGAAUUUCGAAUGUAUACUAGAAGGGAGAAAUCUAC [Ostracism 55 - Jieux - Exclusion NG 2] (Eterna round: R96, puzzle: Exclusion NG 2)”, the “apparent KD of MS2 coat protein” value runs as follows: (input ligand: FMN 200 uM) 44.5 nM; under setting [2], 35.8 nM; (input ligand: none) 46.1 nM.

For “CAUAUACAUGAGGAUCACCCAUGUGAGGAUAUGCUUUAUUAUUAUUAUUAUUAUUAUUGCAGAAGGUACAUUAC [LRO-Excl01-12] (Eterna round: R97, puzzle: Exclusion 1)”, the “apparent KD of MS2 coat protein” value reads like this: (input ligand: FMN 200 uM) 23.9 nM; (input ligand: none) 24.6 nM.

Turning to “CAUGAUCUUCGGAUCAUGUACAUGAGGAUCACCCAUGUGACGAGUUACAUGUUUUACAAGCUUUUUGCUCGUCUUAU [Sensor v3 - Turn-off variant 1 - 14] (puzzle: Sensor v3, turn-off variant 1)”, the “apparent KD of MS2 coat protein” value by setting is: under setting [3], 40.3 nM; under setting [1], 99.4 nM; under setting [4], 47.4 nM.

On to “CAUGAUUGGCGAGGAUAUUGACCUAGUUCGCGACGAGAAGGCGCCUGUCACAUGAGGAUCACCCAUGUGAAUCUGGUGAAAGAG [Ex NG1 #91] (Eterna round: R96, puzzle: Exclusion NG 1)”, for which the “apparent KD of MS2 coat protein” value (input ligand: FMN 200 uM) came out at 14.5 nM, the “apparent KD of MS2 coat protein” value under setting [2] came out at 11.4 nM and the “apparent KD of MS2 coat protein” value (input ligand: none) was 20.3 nM.

In the case of “CAUGAUUGGCGAGGAUAUUGAUCUAGUUGGCGACGAGAAGGCGCCUGUCACAUGAGGAUCACCCAUGUGAAUCUGGUGAAAGAG [Ex NG1 #89] (Eterna round: R96, puzzle: Exclusion NG 1)”, the “apparent KD of MS2 coat protein” value reads like this: (input ligand: FMN 200 uM) 24.9 nM; under setting [2], 18.5 nM; (input ligand: none) 25.9 nM.

With “CAUGGAACAUAGGAUAUCUCGCGGCUAGACUGCAGAGAAGGAUGUACAUGAGGAUCACCCAUGUAUGAUCCAGU [Leisceza] (puzzle: Exclusion 6)”, the “apparent KD of MS2 coat protein” value reads like this: under setting [3], 29.3 nM; under setting [1], 15.8 nM; under setting [4], 17.3 nM.

Regarding “CAUGUGUAAGGAUAUGACAAUGGUAUCUUCGGAUACCAUUGUCAGAAGGUACAUGAGGAUCACCCAUGUACAUC [Ex4-3: 17] (puzzle: Exclusion 4)”, under setting [1], the “apparent KD of MS2 coat protein” value came to 13.1 nM.

For “CAUGUGUGAGGAUAUCCUAGACUAAUGGAGACGCUACCGUGGGAGAAGGUACAUGAGGAUCACCCAUGUGGACC [Eternabot (L1) Solution 88] (Eterna round: R97, puzzle: Exclusion 4)”, the “apparent KD of MS2 coat protein” value by setting is: (input ligand: FMN 200 uM) 32.7 nM; (input ligand: none) 32.2 nM.

In the case of “CAUUAGCAAGCGAGAUCCCACAUGAGGAUCACCCAUGUGCUCGUCUUAUAAGGUACUGUGACGAGAGUCACGGUACC [Mat - Sensor, turn-off var - Eli Mod - D42] (Eterna round: R97, puzzle: Sensor, turn-off variant 1)”, the “apparent KD of MS2 coat protein” value is, setting by setting: (input ligand: FMN 200 uM) 15.2 nM; (input ligand: none) 16.1 nM.

Turning to “CAUUAUGUUGAGGAUAUGCACCAGCUCACUGACGCAGAAGGCGACACAUGAGGAUCACCCAUGUCAGUUCGCGU [salish99_ex6_r004_429] (Eterna round: R97, puzzle: Exclusion 6)”, the “apparent KD of MS2 coat protein” value is 23.5 nM (input ligand: FMN 200 uM) and 17 nM (input ligand: none).

As to “CAUUAUGUUGAGGAUAUGCGCCGGCUCGCUGGCGCAGAAGGCGACACAUGAGGAUCACCCAUGUCAGUUCGCGA [salish99_ex6_r004_418] (Eterna round: R97, puzzle: Exclusion 6)”, the “apparent KD of MS2 coat protein” value is, setting by setting: (input ligand: FMN 200 uM) 13.3 nM; (input ligand: none) 8.87 nM.

As for “CAUUAUUAUCGAGGAUAUCCUAUUGAAAUUCUGGGAGAAGGCGGACUCAACAUGAGGAUCACCCAUGUAAGACGGGUGCUAGGG [Ex NG1 #25] (Eterna round: R96, puzzle: Exclusion NG 1)”, the “apparent KD of MS2 coat protein” value is, setting by setting: (input ligand: FMN 200 uM) 202 nM; under setting [2], 93.1 nM; (input ligand: none) 157 nM.

Regarding “CAUUGACAUGAGGAUCACCCAUGUCAGGAUAUGCUUCAUGACACGAAAGUGUCAUGAAGCAGAAGGGACAUGCC [SS1 Omei 1] (puzzle: Exclusion 1)”, the “apparent KD of MS2 coat protein” value under setting [1] turned out to be 19.5 nM.

In the case of “CAUUGUUAUCGAGGAUAUCGUAUUGAGAUACUACGAGAAGGCGGAAUAAACAUGAGGAUCACCCAUGUGAGACGGAUGCUUGUG [Ex NG1 #34] (Eterna round: R96, puzzle: Exclusion NG 1)”, the “apparent KD of MS2 coat protein” value was determined as 34.1 nM (input ligand: FMN 200 uM), 16 nM under setting [2] and 28.3 nM (input ligand: none).
